Data reported in patent publication US20050118611, “Thioaptamers enable discovery of physiological pathways and new therapeutic strategies” (Board Of Regents, The University of Texas System, published 2005).

Biological target: NF-κB p65 (RelA) homodimer (UniProt Q04206 Q04206:1-551)
Test: competition; inhibition/binding similar to unsubstituted aptamer; 32P IgκB competition
Conditions: protein: NAME; chain copies: 2 (stated)
Description: As the substitutions of dithiophosphate were increased, binding by the [S₂]-ODN oligonucleotide increased dramatically. For example, in a standard competitive binding assay, ³²P IgκB promoter element ODN is incubated with recombinant p65 and varying amounts of XBY aptamer competitor. The relative binding ability of the unlabeled ODNs is determined by the concentration needed to effectively compete with the standard labeled ODN. XBY1 through 6 correspond to CK-14 aptamers with 1 through 6 dithiophosphate substitutions, respectively. The present inventors, according to an embodiment of this invention, developed an oligonucleotide containing six dithioate linkages on the two strands, termed XBY-6. Unlike the fully substituted [S]-ODN CK-14, the XBY-6 hybrid backbone [S₂]-ODN aptamers bound more tightly to p50/p50 (5-fold) than to the p65 homodimer.

NF-κB p65 (RelA) homodimer, sequence (Q04206 whole entry, one chain of several): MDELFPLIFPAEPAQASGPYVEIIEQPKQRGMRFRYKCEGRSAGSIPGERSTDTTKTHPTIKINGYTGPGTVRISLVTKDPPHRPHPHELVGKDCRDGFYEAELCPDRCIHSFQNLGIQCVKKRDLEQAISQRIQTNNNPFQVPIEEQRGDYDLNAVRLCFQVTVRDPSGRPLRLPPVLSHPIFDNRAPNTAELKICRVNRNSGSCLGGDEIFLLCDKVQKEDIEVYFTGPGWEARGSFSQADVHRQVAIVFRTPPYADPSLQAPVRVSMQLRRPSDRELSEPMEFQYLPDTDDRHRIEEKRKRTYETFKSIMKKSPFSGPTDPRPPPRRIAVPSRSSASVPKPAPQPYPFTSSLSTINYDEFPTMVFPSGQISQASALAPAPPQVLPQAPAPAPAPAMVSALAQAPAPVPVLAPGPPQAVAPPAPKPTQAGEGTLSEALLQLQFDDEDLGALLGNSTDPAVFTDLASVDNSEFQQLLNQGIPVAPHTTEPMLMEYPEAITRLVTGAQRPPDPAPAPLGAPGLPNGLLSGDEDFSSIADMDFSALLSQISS

B1: CK-14 with one or two dithioate linkages (XBY1, XBY2) (dsDNA)
DNA 1: CCAGGAGATTCCAC
DNA 2: GTGGAATCTCCTGG
modifications: 1 or 2 phosphorodithioates, positions not given
Q: How did the binding signal turn out when B1 was run?
A: ~1 fold vs unsubstituted
